Laboratory results: patent US7037674

Tested on: cytochrome c

Sequence of cytochrome P-450 reductase purified from P. somniferum cell suspension cultures (chain, as listed by the source): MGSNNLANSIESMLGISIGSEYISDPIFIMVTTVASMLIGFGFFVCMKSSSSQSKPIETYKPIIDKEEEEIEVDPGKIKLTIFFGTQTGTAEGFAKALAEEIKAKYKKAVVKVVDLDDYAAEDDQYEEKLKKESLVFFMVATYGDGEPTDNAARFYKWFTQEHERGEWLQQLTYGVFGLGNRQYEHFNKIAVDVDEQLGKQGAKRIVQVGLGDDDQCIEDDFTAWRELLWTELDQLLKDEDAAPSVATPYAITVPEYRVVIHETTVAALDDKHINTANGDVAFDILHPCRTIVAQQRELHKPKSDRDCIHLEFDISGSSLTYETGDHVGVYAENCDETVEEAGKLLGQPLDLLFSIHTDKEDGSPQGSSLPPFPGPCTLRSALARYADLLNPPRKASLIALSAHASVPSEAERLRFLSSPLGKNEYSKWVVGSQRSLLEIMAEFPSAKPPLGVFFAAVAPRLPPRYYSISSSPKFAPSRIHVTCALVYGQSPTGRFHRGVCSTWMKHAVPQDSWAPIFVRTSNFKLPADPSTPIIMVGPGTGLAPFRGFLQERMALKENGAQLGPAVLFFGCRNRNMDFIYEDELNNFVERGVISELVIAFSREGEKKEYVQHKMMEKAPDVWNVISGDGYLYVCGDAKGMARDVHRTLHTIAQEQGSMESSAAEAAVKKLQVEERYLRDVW

Q: For “cytochrome P-450 reductase purified from P. somniferum cell suspension cultures”, which “Km (cytochrome c reduction, enzyme activity)” value is on record?
A: The value was “The Km value for cytochrome c was 8.3 µM”.
